Data reported in paper PMC4858292, “Determination of the CD148-Interacting Region in Thrombospondin-1” (PLoS ONE, 2016).

B1: Trimeric TSP1 fragment, oligomerization domain + procollagen (aa 261–373) (domain or fragment, human, UniProt P07996 261-373, looked up)
chain: HKTKDLQAICGISCDELSSMVLELRGLRTIVTTLQDSIRKVTEENKELANELRRPPLCYHNGVQYRNNEEWTVDSCTECHCQNSVTICKKVSCPIMPCSNATVPDGECCPRCW
notes: thrombospondin-1 (TSP1), human, oligomerization domain + procollagen, aa 261-373; Subcloned into HindIII and XbaI sites of the APtag-5 vector; also called trimeric TSP1 fragment containing the procollagen domain alone; source: HEK293E suspension culture, transient transfection, purified from culture supernatant (HisTrap Excel); not shown: Myc, C-terminal, kept
B2: Trimeric TSP1 fragment, oligomerization domain + procollagen + type 1 repeats (aa 261–547) (domain or fragment, human, UniProt P07996 261-547, looked up)
chain: HKTKDLQAICGISCDELSSMVLELRGLRTIVTTLQDSIRKVTEENKELANELRRPPLCYHNGVQYRNNEEWTVDSCTECHCQNSVTICKKVSCPIMPCSNATVPDGECCPRCWPSDSADDGWSPWSEWTSCSTSCGNGIQQRGRSCDSLNNRCEGSSVQTRTCHIQECDKRFKQDGGWSHWSPWSSCSVTCGDGVITRIRLCNSPSPQMNGKPCEGEARETKACKKDACPINGGWGPWSPWDICSVTCGGGVQKRSRLCNNPTPQFGGKDCVGDVTENQICNKQDCP
notes: Subcloned into HindIII and XbaI sites of the APtag-5 vector; also called trimeric TSP1 fragment containing the procollagen domain and type 1 repeats; trimeric TSP1 fragment that contains all three type 1 repeats; source: HEK293E suspension culture, transient transfection, purified from culture supernatant (HisTrap Excel); not shown: Myc, C-terminal, kept
B3: Trimeric TSP1 fragment, oligomerization domain + procollagen and 1^st type 1 repeat (aa 261–429) (domain or fragment, human, UniProt P07996 261-429, looked up)
chain: HKTKDLQAICGISCDELSSMVLELRGLRTIVTTLQDSIRKVTEENKELANELRRPPLCYHNGVQYRNNEEWTVDSCTECHCQNSVTICKKVSCPIMPCSNATVPDGECCPRCWPSDSADDGWSPWSEWTSCSTSCGNGIQQRGRSCDSLNNRCEGSSVQTRTCHIQECD
notes: thrombospondin-1 (TSP1), human, oligomerization domain + procollagen + 1st type 1 repeat, aa 261-429; Subcloned into HindIII and XbaI sites of the APtag-5 vector; also called trimeric TSP1 fragment containing the procollagen domain and the 1st type 1 repeat; source: HEK293E suspension culture, transient transfection, purified from culture supernatant (HisTrap Excel); not shown: Myc, C-terminal, …
B4: Trimeric TSP1 fragment, oligomerization domain + procollagen + 1^st & 2^nd type 1 repeats (aa 261–490) (domain or fragment, human, UniProt P07996 261-490, looked up)
chain: HKTKDLQAICGISCDELSSMVLELRGLRTIVTTLQDSIRKVTEENKELANELRRPPLCYHNGVQYRNNEEWTVDSCTECHCQNSVTICKKVSCPIMPCSNATVPDGECCPRCWPSDSADDGWSPWSEWTSCSTSCGNGIQQRGRSCDSLNNRCEGSSVQTRTCHIQECDKRFKQDGGWSHWSPWSSCSVTCGDGVITRIRLCNSPSPQMNGKPCEGEARETKACKKDACP
notes: thrombospondin-1 (TSP1), human, oligomerization domain + procollagen + 1st and 2nd type 1 repeats, aa 261-490; Subcloned into HindIII and XbaI sites of the APtag-5 vector; source: HEK293E suspension culture, transient transfection, purified from culture supernatant (HisTrap Excel); not shown: Myc, C-terminal, kept

Target: the molecule itself
Test: SDS-PAGE in non-reducing and reducing conditions; purified fragments separated in non-reducing and reducing (50 mM DTT) conditions; colloidal blue stain and anti-Myc immunoblot

Stoichiometry N, 3:
B1
B2
B3
B4
